The values that follow come from US20140087995A1 (published 2014).

Usually IC50 stands for the concentration needed to halve the response being measured.

Numbered stars: 1 amine (or outer) side, 2 acyl side, 3 side chain; on linkers, the order of the positions; unused ones are H or OH. Bridge positions count the residues as written; N and C are the ends. Side chains are listed from the residue outwards. Ends that are not written are not given here. * marks the point of attachment. C20 diacid = O=C(O)CCCCCCCCCCCCCCCCCCC(=O)*; γGlu = O=C(O)[C@H](CCC(=O)[*:2])N[*:1]

The experiment deals with T1, human amylin receptor (human, UniProt P30988 25-474; O60896 24-148, limits assumed).
T1 construct: whole, on cells; Calcitonin receptor plus RAMP-3 gives the amylin 3(a) receptor; membranes of Amylin 3(a)/CRE-luc cells were used; also called hAmylin-R; hAmylinR
T1 sequence (looked up) 1: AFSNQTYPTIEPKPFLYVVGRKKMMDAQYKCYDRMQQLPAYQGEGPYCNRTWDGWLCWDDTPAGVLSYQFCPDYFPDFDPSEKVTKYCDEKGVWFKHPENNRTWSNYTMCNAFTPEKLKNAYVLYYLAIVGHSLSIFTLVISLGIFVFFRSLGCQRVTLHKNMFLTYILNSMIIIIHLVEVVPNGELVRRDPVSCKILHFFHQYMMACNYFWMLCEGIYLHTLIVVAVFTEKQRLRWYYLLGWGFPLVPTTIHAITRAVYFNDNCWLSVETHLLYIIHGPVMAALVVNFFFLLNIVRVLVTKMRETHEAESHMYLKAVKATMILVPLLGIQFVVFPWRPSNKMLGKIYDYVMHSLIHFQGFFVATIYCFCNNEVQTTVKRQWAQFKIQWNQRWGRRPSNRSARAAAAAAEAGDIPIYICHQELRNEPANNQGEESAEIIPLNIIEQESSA
T1 sequence (looked up) 2: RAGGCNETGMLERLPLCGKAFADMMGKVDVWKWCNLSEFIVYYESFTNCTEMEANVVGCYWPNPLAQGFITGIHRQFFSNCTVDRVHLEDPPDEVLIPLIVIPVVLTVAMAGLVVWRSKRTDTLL
The experiment can be described thus: SPA competition binding, displacement of 125I-rat amylin from membranes with human amylin 3(a) receptor (Assay V). In outline: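 Cell membranes were prepared by homogenisation in Na-HEPES/EDTA buffer, pH 7.4, and stored at −80° C. They were then coupled to SPA beads at 35 ng/μL final and exposed to compounds in assay buffer containing CaCl2, MgCl₂, OA and Tween20. After 120 min at 25° C, plates were counted and IC₅₀ derived.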
A general note: Loss of bound radioactivity is the signal in a displacement assay; it reports binding, not function.

B1: N^ε1-[(4S)-4-carboxy-4-(19-carboxynonadecanoylamino)butanoyl]-[Arg17,Pro21,Pro27,His34]-h-amylin (peptide)
peptide: K([γGlu-C20 diacid])CNTATCATQRLANFLRHSSPNFGAIPSSTNVGHNTY-NH2
modifications: disulfide 2-7; N-terminus assumed
SMILES: CC[C@H](C)[C@H](NC(=O)[C@H](C)NC(=O)CNC(=O)[C@H](Cc1ccccc1)NC(=O)[C@H](CC(N)=O)NC(=O)[C@@H]1CCCN1C(=O)[C@H](CO)NC(=O)[C@H](CO)NC(=O)[C@H](Cc1c[nH]cn1)NC(=O)[C@H](CCCNC(=N)N)NC(=O)[C@H](CC(C)C)NC(=O)[C@H](Cc1ccccc1)NC(=O)[C@H](CC(N)=O)NC(=O)[C@H](C)NC(=O)[C@H](CC(C)C)NC(=O)[C@H](CCCNC(=N)N)NC(=O)[C@H](CCC(N)=O)NC(=O)[C@@H](NC(=O)[C@H](C)NC(=O)[C@@H]1CSSC[C@H](NC(=O)[C@@H](N)CCCCNC(=O)CC[C@H](NC(=O)CCCCCCCCCCCCCCCCCCC(=O)O)C(=O)O)C(=O)N[C@@H](CC(N)=O)C(=O)N[C@@H]([C@@H](C)O)C(=O)N[C@@H](C)C(=O)N[C@@H]([C@@H](C)O)C(=O)N1)[C@@H](C)O)C(=O)N1CCC[C@H]1C(=O)N[C@@H](CO)C(=O)N[C@@H](CO)C(=O)N[C@H](C(=O)N[C@@H](CC(N)=O)C(=O)N[C@H](C(=O)NCC(=O)N[C@@H](Cc1c[nH]cn1)C(=O)N[C@@H](CC(N)=O)C(=O)N[C@H](C(=O)N[C@@H](Cc1ccc(O)cc1)C(N)=O)[C@@H](C)O)C(C)C)[C@@H](C)O
notes: also called 17R, 21P, 27P, 34H
In the case of B1, the IC50 came to 0.428 nM.

B2: N^ε1-[(4S)-4-carboxy-4-(19-carboxynonadecanoylamino)butanoyl]-[Glu14,Arg17,Pro21,Pro27,Pro34,Arg35]-h-amylin (peptide)
peptide: K([γGlu-C20 diacid])CNTATCATQRLAEFLRHSSPNFGAIPSSTNVGPRTY-NH2
modifications: disulfide 2-7; N-terminus assumed
SMILES: CC[C@H](C)[C@H](NC(=O)[C@H](C)NC(=O)CNC(=O)[C@H](Cc1ccccc1)NC(=O)[C@H](CC(N)=O)NC(=O)[C@@H]1CCCN1C(=O)[C@H](CO)NC(=O)[C@H](CO)NC(=O)[C@H](Cc1c[nH]cn1)NC(=O)[C@H](CCCNC(=N)N)NC(=O)[C@H](CC(C)C)NC(=O)[C@H](Cc1ccccc1)NC(=O)[C@H](CCC(=O)O)NC(=O)[C@H](C)NC(=O)[C@H](CC(C)C)NC(=O)[C@H](CCCNC(=N)N)NC(=O)[C@H](CCC(N)=O)NC(=O)[C@@H](NC(=O)[C@H](C)NC(=O)[C@@H]1CSSC[C@H](NC(=O)[C@@H](N)CCCCNC(=O)CC[C@H](NC(=O)CCCCCCCCCCCCCCCCCCC(=O)O)C(=O)O)C(=O)N[C@@H](CC(N)=O)C(=O)N[C@@H]([C@@H](C)O)C(=O)N[C@@H](C)C(=O)N[C@@H]([C@@H](C)O)C(=O)N1)[C@@H](C)O)C(=O)N1CCC[C@H]1C(=O)N[C@@H](CO)C(=O)N[C@@H](CO)C(=O)N[C@H](C(=O)N[C@@H](CC(N)=O)C(=O)N[C@H](C(=O)NCC(=O)N1CCC[C@H]1C(=O)N[C@@H](CCCNC(=N)N)C(=O)N[C@H](C(=O)N[C@@H](Cc1ccc(O)cc1)C(N)=O)[C@@H](C)O)C(C)C)[C@@H](C)O
notes: also called 14E, 17R, 21P, 27P, 34P, 35R
B2 displayed an IC50 of 0.163 nM.

B3: N^ε1-[(4S)-4-carboxy-4-(19-carboxynonadecanoylamino)butanoyl]-[Asp14,Arg17,Pro21,Pro27,Pro34,Glu35]-h-amylin (peptide)
peptide: K([γGlu-C20 diacid])CNTATCATQRLADFLRHSSPNFGAIPSSTNVGPETY-NH2
modifications: disulfide 2-7; N-terminus assumed
SMILES: CC[C@H](C)[C@H](NC(=O)[C@H](C)NC(=O)CNC(=O)[C@H](Cc1ccccc1)NC(=O)[C@H](CC(N)=O)NC(=O)[C@@H]1CCCN1C(=O)[C@H](CO)NC(=O)[C@H](CO)NC(=O)[C@H](Cc1c[nH]cn1)NC(=O)[C@H](CCCNC(=N)N)NC(=O)[C@H](CC(C)C)NC(=O)[C@H](Cc1ccccc1)NC(=O)[C@H](CC(=O)O)NC(=O)[C@H](C)NC(=O)[C@H](CC(C)C)NC(=O)[C@H](CCCNC(=N)N)NC(=O)[C@H](CCC(N)=O)NC(=O)[C@@H](NC(=O)[C@H](C)NC(=O)[C@@H]1CSSC[C@H](NC(=O)[C@@H](N)CCCCNC(=O)CC[C@H](NC(=O)CCCCCCCCCCCCCCCCCCC(=O)O)C(=O)O)C(=O)N[C@@H](CC(N)=O)C(=O)N[C@@H]([C@@H](C)O)C(=O)N[C@@H](C)C(=O)N[C@@H]([C@@H](C)O)C(=O)N1)[C@@H](C)O)C(=O)N1CCC[C@H]1C(=O)N[C@@H](CO)C(=O)N[C@@H](CO)C(=O)N[C@H](C(=O)N[C@@H](CC(N)=O)C(=O)N[C@H](C(=O)NCC(=O)N1CCC[C@H]1C(=O)N[C@@H](CCC(=O)O)C(=O)N[C@H](C(=O)N[C@@H](Cc1ccc(O)cc1)C(N)=O)[C@@H](C)O)C(C)C)[C@@H](C)O
notes: also called 14D, 17R, 21P, 27P, 34P, 35E
B3 registered an IC50 of 0.196 nM.

B4: N^ε1-[(4S)-4-carboxy-4-(19-carboxynonadecanoylamino)butanoyl]-[Glu14,Arg17,Pro21,Pro27,His34,Glu35]-h-amylin (peptide)
peptide: K([γGlu-C20 diacid])CNTATCATQRLAEFLRHSSPNFGAIPSSTNVGHETY-NH2
modifications: disulfide 2-7; N-terminus assumed
SMILES: CC[C@H](C)[C@H](NC(=O)[C@H](C)NC(=O)CNC(=O)[C@H](Cc1ccccc1)NC(=O)[C@H](CC(N)=O)NC(=O)[C@@H]1CCCN1C(=O)[C@H](CO)NC(=O)[C@H](CO)NC(=O)[C@H](Cc1c[nH]cn1)NC(=O)[C@H](CCCNC(=N)N)NC(=O)[C@H](CC(C)C)NC(=O)[C@H](Cc1ccccc1)NC(=O)[C@H](CCC(=O)O)NC(=O)[C@H](C)NC(=O)[C@H](CC(C)C)NC(=O)[C@H](CCCNC(=N)N)NC(=O)[C@H](CCC(N)=O)NC(=O)[C@@H](NC(=O)[C@H](C)NC(=O)[C@@H]1CSSC[C@H](NC(=O)[C@@H](N)CCCCNC(=O)CC[C@H](NC(=O)CCCCCCCCCCCCCCCCCCC(=O)O)C(=O)O)C(=O)N[C@@H](CC(N)=O)C(=O)N[C@@H]([C@@H](C)O)C(=O)N[C@@H](C)C(=O)N[C@@H]([C@@H](C)O)C(=O)N1)[C@@H](C)O)C(=O)N1CCC[C@H]1C(=O)N[C@@H](CO)C(=O)N[C@@H](CO)C(=O)N[C@H](C(=O)N[C@@H](CC(N)=O)C(=O)N[C@H](C(=O)NCC(=O)N[C@@H](Cc1c[nH]cn1)C(=O)N[C@@H](CCC(=O)O)C(=O)N[C@H](C(=O)N[C@@H](Cc1ccc(O)cc1)C(N)=O)[C@@H](C)O)C(C)C)[C@@H](C)O
notes: also called 14E, 17R, 21P, 27P, 34H, 35E
For B4, the IC50 amounted to 0.387 nM.

B5: N^ε1-[(4S)-4-carboxy-4-(19-carboxynonadecanoylamino)butanoyl]-[Arg17,Pro21,Pro27,His35]-h-amylin (peptide)
peptide: K([γGlu-C20 diacid])CNTATCATQRLANFLRHSSPNFGAIPSSTNVGSHTY-NH2
modifications: disulfide 2-7; N-terminus assumed
SMILES: CC[C@H](C)[C@H](NC(=O)[C@H](C)NC(=O)CNC(=O)[C@H](Cc1ccccc1)NC(=O)[C@H](CC(N)=O)NC(=O)[C@@H]1CCCN1C(=O)[C@H](CO)NC(=O)[C@H](CO)NC(=O)[C@H](Cc1c[nH]cn1)NC(=O)[C@H](CCCNC(=N)N)NC(=O)[C@H](CC(C)C)NC(=O)[C@H](Cc1ccccc1)NC(=O)[C@H](CC(N)=O)NC(=O)[C@H](C)NC(=O)[C@H](CC(C)C)NC(=O)[C@H](CCCNC(=N)N)NC(=O)[C@H](CCC(N)=O)NC(=O)[C@@H](NC(=O)[C@H](C)NC(=O)[C@@H]1CSSC[C@H](NC(=O)[C@@H](N)CCCCNC(=O)CC[C@H](NC(=O)CCCCCCCCCCCCCCCCCCC(=O)O)C(=O)O)C(=O)N[C@@H](CC(N)=O)C(=O)N[C@@H]([C@@H](C)O)C(=O)N[C@@H](C)C(=O)N[C@@H]([C@@H](C)O)C(=O)N1)[C@@H](C)O)C(=O)N1CCC[C@H]1C(=O)N[C@@H](CO)C(=O)N[C@@H](CO)C(=O)N[C@H](C(=O)N[C@@H](CC(N)=O)C(=O)N[C@H](C(=O)NCC(=O)N[C@@H](CO)C(=O)N[C@@H](Cc1c[nH]cn1)C(=O)N[C@H](C(=O)N[C@@H](Cc1ccc(O)cc1)C(N)=O)[C@@H](C)O)C(C)C)[C@@H](C)O
notes: also called 17R, 21P, 27P, 35H
Regarding B5, the IC50 was 0.695 nM.

B6: N^ε1-[(4S)-4-carboxy-4-(19-carboxynonadecanoylamino)butanoyl]-[Glu14,Arg17,Pro21,Pro27,Arg34,Glu35]-h-amylin (peptide)
peptide: K([γGlu-C20 diacid])CNTATCATQRLAEFLRHSSPNFGAIPSSTNVGRETY-NH2
modifications: disulfide 2-7; N-terminus assumed
SMILES: CC[C@H](C)[C@H](NC(=O)[C@H](C)NC(=O)CNC(=O)[C@H](Cc1ccccc1)NC(=O)[C@H](CC(N)=O)NC(=O)[C@@H]1CCCN1C(=O)[C@H](CO)NC(=O)[C@H](CO)NC(=O)[C@H](Cc1c[nH]cn1)NC(=O)[C@H](CCCNC(=N)N)NC(=O)[C@H](CC(C)C)NC(=O)[C@H](Cc1ccccc1)NC(=O)[C@H](CCC(=O)O)NC(=O)[C@H](C)NC(=O)[C@H](CC(C)C)NC(=O)[C@H](CCCNC(=N)N)NC(=O)[C@H](CCC(N)=O)NC(=O)[C@@H](NC(=O)[C@H](C)NC(=O)[C@@H]1CSSC[C@H](NC(=O)[C@@H](N)CCCCNC(=O)CC[C@H](NC(=O)CCCCCCCCCCCCCCCCCCC(=O)O)C(=O)O)C(=O)N[C@@H](CC(N)=O)C(=O)N[C@@H]([C@@H](C)O)C(=O)N[C@@H](C)C(=O)N[C@@H]([C@@H](C)O)C(=O)N1)[C@@H](C)O)C(=O)N1CCC[C@H]1C(=O)N[C@@H](CO)C(=O)N[C@@H](CO)C(=O)N[C@H](C(=O)N[C@@H](CC(N)=O)C(=O)N[C@H](C(=O)NCC(=O)N[C@@H](CCCNC(=N)N)C(=O)N[C@@H](CCC(=O)O)C(=O)N[C@H](C(=O)N[C@@H](Cc1ccc(O)cc1)C(N)=O)[C@@H](C)O)C(C)C)[C@@H](C)O
notes: also called 14E, 17R, 21P, 27P, 34R, 35E
As for B6, the IC50 stood at 0.232 nM.
